Measured values from article PMC3069016 (Molecular Biology of the Cell, 2011).

Molecular target: T1, Csn10-CBP-A2 (S. cerevisiae, UniProt Q12348 1-645)
T1 sequence (looked up): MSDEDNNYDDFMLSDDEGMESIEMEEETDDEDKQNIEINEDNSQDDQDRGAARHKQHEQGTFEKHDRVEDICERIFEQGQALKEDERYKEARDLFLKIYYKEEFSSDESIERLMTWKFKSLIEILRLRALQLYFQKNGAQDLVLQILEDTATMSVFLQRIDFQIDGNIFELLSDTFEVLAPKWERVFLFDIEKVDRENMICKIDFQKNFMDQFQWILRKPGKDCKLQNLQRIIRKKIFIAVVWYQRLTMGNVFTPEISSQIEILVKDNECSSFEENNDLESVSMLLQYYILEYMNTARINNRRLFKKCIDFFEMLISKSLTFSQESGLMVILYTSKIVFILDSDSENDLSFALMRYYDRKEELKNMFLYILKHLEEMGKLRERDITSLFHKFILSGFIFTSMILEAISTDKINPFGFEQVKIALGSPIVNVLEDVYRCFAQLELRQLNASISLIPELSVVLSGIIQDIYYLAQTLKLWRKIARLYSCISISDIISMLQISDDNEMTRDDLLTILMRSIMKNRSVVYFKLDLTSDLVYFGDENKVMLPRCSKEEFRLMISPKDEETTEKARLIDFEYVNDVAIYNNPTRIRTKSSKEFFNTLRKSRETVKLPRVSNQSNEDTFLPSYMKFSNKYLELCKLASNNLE
Assay: affinity purification with mass spectrometry

- stoichiometry N: 1
B1: Rpn5 (natural protein, S. cerevisiae, UniProt Q12250 1-445, looked up)
chain: MSRDAPIKADKDYSQILKEEFPKIDSLAQNDCNSALDQLLVLEKKTRQASDLASSKEVLAKIVDLLASRNKWDDLNEQLTLLSKKHGQLKLSIQYMIQKVMEYLKSSKSLDLNTRISVIETIRVVTENKIFVEVERARVTKDLVEIKKEEGKIDEAADILCELQVETYGSMEMSEKIQFILEQMELSILKGDYSQATVLSRKILKKTFKNPKYESLKLEYYNLLVKISLHKREYLEVAQYLQEIYQTDAIKSDEAKWKPVLSHIVYFLVLSPYGNLQNDLIHKIQNDNNLKKLESQESLVKLFTTNELMRWPIVQKTYEPVLNEDDLAFGGEANKHHWEDLQKRVIEHNLRVISEYYSRITLLRLNELLDLTESQTETYISDLVNQGIIYAKVNRPAKIVNFEKPKNSSQLLNEWSHNVDELLEHIETIGHLITKEEIMHGLQAK
